Laboratory results reported in US20100047164A1.

Target: chondroitin sulfate proteoglycan (human) (UniProt Q6UVK1)

## 9.2.27 PE38-KDEL (from UniProt P11439) (scFv)
  IC50 cytotoxicity, A375 (Expt 2) melanoma cells (9.2.27F10): 4.5 µg/mL
  IC50 cytotoxicity, A375 (Expt 2) melanoma cells (9.2.27F11): 4.5 µg/mL
  IC50 cytotoxicity, A375 (Expt 3) melanoma cells (9.2.27F11): 0.6 µg/mL
  IC50 cytotoxicity, D54 glioma cells (9.2.27F10): 0.055 µg/mL
  IC50 cytotoxicity, D54 glioma cells (9.2.27F11): 0.07 µg/mL
  IC50 cytotoxicity, D79 glioma cells (9.2.27F10): 0.22 µg/mL
  IC50 cytotoxicity, D79 glioma cells (9.2.27F11): 0.1 µg/mL
  IC50 cytotoxicity, D245 glioma cells (9.2.27F10): 0.008 µg/mL
  IC50 cytotoxicity, D245 glioma cells (9.2.27F11): 0.006 µg/mL
  IC50 cytotoxicity, D247 glioma cells (9.2.27F11): 0.08 µg/mL
  IC50 cytotoxicity, H350 melanoma cells (9.2.27F10): 0.02 µg/mL
  IC50 cytotoxicity, H350 melanoma cells (9.2.27F11): 0.02 µg/mL
  IC50 cytotoxicity, Malme3M melanoma cells (9.2.27F10): 0.018 µg/mL
  IC50 cytotoxicity, Malme3M melanoma cells (9.2.27F11): 0.02 µg/mL
  IC50 cytotoxicity, SKMel2 melanoma cells (9.2.27F10): 2.4 µg/mL
  IC50 cytotoxicity, SKMel2 melanoma cells (9.2.27F11): 0.7 µg/mL
  IC50 cytotoxicity, SKMel5 melanoma cells (9.2.27F10): 0.35 µg/mL
  IC50 cytotoxicity, SKMel5 melanoma cells (9.2.27F11): 0.2 µg/mL
  IC50 cytotoxicity, TB2620 glioma cells (9.2.27F10): 0.5 µg/mL
  IC50 cytotoxicity, TB2620 glioma cells (9.2.27F11): 0.18 µg/mL

## MEL-14 PE38-KDEL (from UniProt P11439) (scFv)
  IC50 cytotoxicity, A375 (Expt 2) melanoma cells (Mel14-KDEL): 0.5 µg/mL
  IC50 cytotoxicity, A375 (Expt 3) melanoma cells (Mel14-KDEL): 0.45 µg/mL
  IC50 cytotoxicity, D54 glioma cells (Mel14-KDEL): 0.05 µg/mL
  IC50 cytotoxicity, D79 glioma cells (Mel14-KDEL): 0.2 µg/mL
  IC50 cytotoxicity, D245 glioma cells (Mel14-KDEL): 0.004 µg/mL
  IC50 cytotoxicity, D247 glioma cells (Mel14-KDEL): 0.1 µg/mL
  IC50 cytotoxicity, H350 melanoma cells (Mel14-KDEL): 0.008 µg/mL
  IC50 cytotoxicity, Malme3M melanoma cells (Mel14-KDEL): 0.001 µg/mL
  IC50 cytotoxicity, SKMel2 melanoma cells (Mel14-KDEL): 0.036 µg/mL
  IC50 cytotoxicity, SKMel5 melanoma cells (Mel14-KDEL): 0.06 µg/mL
  IC50 cytotoxicity, TB2620 glioma cells (Mel14-KDEL): 0.15 µg/mL
